Assays:
purified protein [1] = substrate: COc1cccc(OC)c1O; assay: purified protein; assay type: biochemical, Amycolatopsis sp. ATCC 39116; conditions: O2, 50 mM Tris-HCl, pH 8, 30 °C, 0.1 μM sLac
purified protein [2] = substrate: CCn1c(=NN=c2sc3cc(S(=O)(=O)O)ccc3n2CC)sc2cc(S(=O)(=O)O)ccc21; assay: purified protein; conditions: O2, 50 mM sodium acetate, pH 5, 30 °C, 0.1 μM sLac

B1: sLac (Amycolatopsis sp. ATCC 39116) (protein)
chain: QGTTRRITMYAEKISDELYGYGLAPGGATVPGPVLEMWEGDTLEIDLVNTTDRVLSLHPHGVDYDVNSDGTLMNGSAVMPGQTRRYTWRSHVGYRRADGSWAEGTAGYWHYHDHAMGTEHGTEGVLKGLYGALVVRRQGDLLPKRQFTVVFNDMMINNRAHHDAPTFEANLGERVEWIAIGHGSNFHTFHLHGHRWLDNRTGMRTSEYDPSPLIDIKDLNPGVSFGFQVIAGEGVGPGMWMYHCHVQNHSDMGMAGMFLVRNADGTMPAGVHEH
notes: residues 6-279, putative N-terminal TAT signal removed, TEV-cleavable N-terminal poly-His tag (cleavage not mentioned), pET15a(+), E. coli Rosetta BL21(DE3)pLysS; forward primer […] encodes MQGTTRRI; reverse primer encodes C-terminal ...VHEH
What does the source list for B1?
Km (purified protein [1]): 3000 ± 100 µM; kcat (purified protein [1]): 0.5 ± 0.07 s⁻¹; Km (purified protein [2]): 500 ± 40 µM; kcat (purified protein [2]): 7 ± 0.3 s⁻¹

From paper PMC5294454, “Enhanced delignification of steam-pretreated poplar by a bacterial laccase” (Scientific Reports, 2017)
